From article PMC3801112

B1: 13 mer poly-A RNA (ssRNA)
RNA: AAAAAAAAAAAAA
B2: 13 mer RNA (ssRNA)
RNA: AUAGCCUCAACCG

Experiments:
[1] = biological target: T1, PiCypA (cyclophilin A-like protein) (Piriformospora indica, UniProt C6KGV3 1-164); test: ITC
[2] = biological target: T1, PiCypA (cyclophilin A-like protein); test: ITC; remark: listed apart in the source

Row | Binder | binding result [1] | Kd [2] [µM]
1 | B1 | no binding | 
2 | B2 |  | 22.5
